Experimental data taken from paper PMC9868005, “Structural and functional characterization of TraI from pKM101 reveals basis for DNA processing”.

How the values were obtained:
[1] = molecular target: T1, TraI trans-esterase domain (TraI-TE) (Escherichia coli? (plasmid pKM101), UniProt D9Z5Q2 1-299); experiment: X-ray crystallography 2.1 A; divalent cation modeled as Mn2+ (identity uncertain); 10 of 11 bases modeled; EMSA: 50 nM FITC-DNA, 0-1600 nM protein, 25 mM Hepes-NaOH pH 7.0, 300 mM NaCl, room temperature 15 min; 5% PAGE, 0.75x TBE, 4 C; settings: protein: recombinant; tags: 10xHis with 3C site, cleaved off; U-turn in complex
T1 sequence: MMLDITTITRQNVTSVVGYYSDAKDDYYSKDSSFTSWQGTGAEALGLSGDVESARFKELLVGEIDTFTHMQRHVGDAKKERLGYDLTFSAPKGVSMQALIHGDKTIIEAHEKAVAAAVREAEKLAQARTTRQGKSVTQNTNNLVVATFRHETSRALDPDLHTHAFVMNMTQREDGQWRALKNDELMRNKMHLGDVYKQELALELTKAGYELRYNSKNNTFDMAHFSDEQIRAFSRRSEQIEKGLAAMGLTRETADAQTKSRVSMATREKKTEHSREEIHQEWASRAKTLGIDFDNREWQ

[2] = molecular target: T1, TraI trans-esterase domain (TraI-TE); experiment: EMSA; apparent Kd, half-shift point; EMSA: 50 nM FITC-DNA, 0-1600 nM protein, 25 mM Hepes-NaOH pH 7.0, 300 mM NaCl, room temperature 15 min; 5% PAGE, 0.75x TBE, 4 C; settings: protein: recombinant; tags: 10xHis with 3C site, cleaved off; label: 5' FITC; hairpin
TraI full-length = molecular target: T2, TraI full-length (Escherichia coli? (plasmid pKM101), UniProt D9Z5Q2 3-1079); experiment: EMSA; complete shift at 200 nM and above; high shift from 50 nM; EMSA: 50 nM FITC-DNA, 0-1600 nM protein, 25 mM Hepes-NaOH pH 7.0, 300 mM NaCl, room temperature 15 min; 5% PAGE, 0.75x TBE, 4 C; settings: protein: recombinant; tags: 10xHis with 3C site, cleaved off; label: 5' FITC; hairpin
T2 sequence: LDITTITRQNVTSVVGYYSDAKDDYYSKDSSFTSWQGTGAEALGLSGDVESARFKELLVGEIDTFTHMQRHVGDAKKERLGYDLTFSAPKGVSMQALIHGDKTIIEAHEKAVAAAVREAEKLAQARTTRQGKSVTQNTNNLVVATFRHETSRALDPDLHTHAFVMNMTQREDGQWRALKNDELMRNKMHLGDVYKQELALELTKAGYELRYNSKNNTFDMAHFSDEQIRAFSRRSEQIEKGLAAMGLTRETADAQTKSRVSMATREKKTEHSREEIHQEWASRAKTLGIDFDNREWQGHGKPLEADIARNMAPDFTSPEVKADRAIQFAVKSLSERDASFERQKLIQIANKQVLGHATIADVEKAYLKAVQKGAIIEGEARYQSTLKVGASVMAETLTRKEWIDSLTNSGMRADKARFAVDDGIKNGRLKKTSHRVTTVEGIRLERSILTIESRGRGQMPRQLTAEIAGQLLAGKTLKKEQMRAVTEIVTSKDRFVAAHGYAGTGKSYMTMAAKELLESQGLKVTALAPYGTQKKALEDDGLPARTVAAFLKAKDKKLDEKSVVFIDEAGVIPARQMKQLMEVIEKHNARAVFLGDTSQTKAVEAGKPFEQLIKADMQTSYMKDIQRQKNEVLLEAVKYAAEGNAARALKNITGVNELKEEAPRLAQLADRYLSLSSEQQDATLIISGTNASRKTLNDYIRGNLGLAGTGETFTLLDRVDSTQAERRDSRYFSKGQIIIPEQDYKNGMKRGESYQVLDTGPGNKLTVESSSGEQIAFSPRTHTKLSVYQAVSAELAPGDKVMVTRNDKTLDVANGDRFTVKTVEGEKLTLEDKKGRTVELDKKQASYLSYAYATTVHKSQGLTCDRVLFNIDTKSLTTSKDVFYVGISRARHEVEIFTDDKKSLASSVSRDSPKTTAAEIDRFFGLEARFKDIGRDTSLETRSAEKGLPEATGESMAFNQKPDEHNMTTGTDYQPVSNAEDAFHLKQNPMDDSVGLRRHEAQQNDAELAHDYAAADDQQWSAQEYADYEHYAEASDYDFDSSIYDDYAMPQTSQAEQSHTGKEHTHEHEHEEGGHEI

[3] = molecular target: T1, TraI trans-esterase domain (TraI-TE); experiment: EMSA; interaction only seen above 800 nM; EMSA: 50 nM FITC-DNA, 0-1600 nM protein, 25 mM Hepes-NaOH pH 7.0, 300 mM NaCl, room temperature 15 min; 5% PAGE, 0.75x TBE, 4 C; settings: protein: recombinant; tags: 10xHis with 3C site, cleaved off; label: 5' FITC
[4] = molecular target: T1, TraI trans-esterase domain (TraI-TE); experiment: EMSA; over half bound at 200 nM; EMSA: 50 nM FITC-DNA, 0-1600 nM protein, 25 mM Hepes-NaOH pH 7.0, 300 mM NaCl, room temperature 15 min; 5% PAGE, 0.75x TBE, 4 C; settings: protein: recombinant; tags: 10xHis with 3C site, cleaved off; label: 5' FITC; hairpin

GCGTTAGGTGT (ssDNA) [oriT11]
binding result [1]: binds

B1: F-oriT57 (structured_DNA)
DNA: TGTGATAGCGTGATTTATCGCGCTGCGTTAGGTGTATAGCAGGTTAAGGGATAAAAA
Kd [2]: < 200 nM
apparent K (half saturation) (TraI full-length): < 200 nM

B2: F-Random57 (ssDNA)
DNA: TCCGCCATGCAGACGAGACCAGTCGGAGATTACCGAGCATTCTATCAGGTCGGCGAC
apparent K (half saturation) [3]: > 800 nM

TGTGATAGCGTGATTTATCGCGCTGCGTTAGGTGT (structured_DNA) [F-oriT35]
apparent K (half saturation) [4]: < 200 nM
apparent K (half saturation) (TraI full-length): < 200 nM
